Assay results published in publication PMC9697189, “Peptide-Based [^68Ga]Ga Labeled PET Tracer for Tumor Imaging by Targeting Tumor-Associated Macrophages” (Pharmaceutics, 2022).
Peptide text beside a SMILES is read from it. * marks the point of attachment. DOTA = O=C(O)CN1CCN(CC(=O)O)CCN(CC(=O)*)CCN(CC(=O)O)CC1

Key:
in vitro = in vitro ADME, bovine; settings: serum
Experimental: DOTA-M2pep (80 μg) was dissolved in 200 μL of purified water in a small vial. About 200 μL of [^68Ga]GaCl3 (44.4–59.2 MBq) was added, and 1 M sodium acetate buffer was used to adjust the final pH to 4.0–4.5. After incubation in a water bath at 55 °C for 30 min, the radiolabeling reaction was completed, and the mixture was collected. Radio-HPLC was performed to confirm the radiochemical purity of [^68Ga]Ga-DOTA-M2pep. The mobile phase was composed of solvent A, acetonitrile (ACN) solution, and solvent B, 0.1% trifluoroacetic acid (TFA) in water. The gradient solvent system was set up as follows: 0–8 min, 70% A and 30% B; 8–15 min, 100% A and 0% B; 15–17 min, 5% A and 95% B; 17–20 min, 95% A and 5% B at a flow rate of 1.0 mL/min. To investigate the in vitro stability, 3.7 MBq [^68Ga]Ga-DOTA-M2pep (100 μL) was incubated in the same volume of phosphate-buffered saline (PBS, pH = 7.4) or bovine serum at 37 °C, respectively. The radiochemical purity was assessed at 15, 30, 60, and 120 min. All experiments were performed in triplicate.

in vivo [1] = test: in vivo; parameters: species or system C57B/L6 mice; settings: male, C57B/L6, mouse, iv, 3.7 MBq, total radioactivity
Experimental: (§1) The male C57B/L6 mice (6–8 weeks old, 20–25 g) were purchased from HFK bioscience (Beijing, China) and divided randomly into the experimental and blocking groups. All the studies were approved by the experimental animal ethics committee of Sichuan University and were conducted in compliance with the institutional guidelines for the care and use of laboratory animals. The C57B/L6 mice were injected subcutaneously with 5 × 10^6 B16-F10 cells in 100 µL of PBS into the forelimb of the animals under anesthesia with isoflurane. After 7–10 days, the B16F10 tumor-bearing mice were established and prepared for imaging and biodistribution when xenografts grew to 500–1000 mm^3.
(§2) PET scans were performed using a micro-PET/CT scanner (Inviscan, IRIS, Paris, France). [^68Ga]Ga-DOTA-M2pep (3.7 MBq) was administered to the B16F10 tumor-bearing mice (n = 4) via the tail vein. At 30 min, 1 h, and 2 h post-injection, the tumor-bearing mice were imaged with the micro-PET/CT scan under anesthesia with 2% isoflurane. Each scan was completed within 15 min. For the blocking scans, B16F10 tumor-bearing mice (n = 3) were pretreated with free M2pep (10 mM) in 100 μL saline by intravenous injection 60 min before administration of [^68Ga]Ga-DOTA-M2pep (3.7 MBq). Micro-PET/CT scans were acquired at 60 min post-injection as described above. The obtained images were reconstructed using three-dimensional ordered-subset expectation maximization (3D OSEM) and then processed using Osirix MD. Regions of interest (ROIs) were manually drawn over the tumor regions and organs, and quantitative analyses were calculated. Immunofluorescence staining was performed 24 h after micro-PET scan to determine the [^68Ga]Ga-DOTA-M2pep targeting efficiency. The harvested tumors were fixed with paraformaldehyde for 24 h, then were frozen and sectioned at 10 μm, followed by treatment with Fitc-M2pep, and staining with M2 TAMs marker PE-CD206 antibody and DAPI.

[2] = tested on: B16F10 tumor-bearing mice; test: in vivo; parameters: species or system C57B/L6 mice; settings: mouse
Experimental: as §1, §2

in vivo [3] = test: in vivo; parameters: species or system C57B/L6 mice; settings: male, C57B/L6, mouse, iv, 1.11 MBq, total radioactivity
Experimental: The male C57B/L6 mice (6–8 weeks old, 20–25 g) were purchased from HFK bioscience (Beijing, China) and divided randomly into the experimental and blocking groups. All the studies were approved by the experimental animal ethics committee of Sichuan University and were conducted in compliance with the institutional guidelines for the care and use of laboratory animals. The C57B/L6 mice were injected subcutaneously with 5 × 10^6 B16-F10 cells in 100 µL of PBS into the forelimb of the animals under anesthesia with isoflurane. After 7–10 days, the B16F10 tumor-bearing mice were established and prepared for imaging and biodistribution when xenografts grew to 500–1000 mm^3. The B16F10 tumor-bearing mice (n = 3) were intravenously administered [^68Ga]Ga-DOTA-M2pep (1.11 MBq) for biodistribution studies. At 5, 15, 30, 60 min, and 2 h post-injection, mice were euthanized, and the organs of interest, including the blood, heart, lungs, liver, kidneys, spleen, stomach, intestine, muscle, bone, brain, and tumor, were harvested. The samples were then weighed and counted by an automatic γ-counter (PerkinElmer Wizard, Shelton, CT, USA). In the blocking group, the B16F10 tumor-bearing mice (n = 3) were pretreated with free M2pep (10 mM) in 100 μL saline by intravenous injection 60 min before administration of [^68Ga]Ga-DOTA-M2pep (1.11 MBq). The organs of interest were harvested, weighed, and counted as described above at 60 min post-injection. The percentage of tracer uptake was calculated as the percentage of injected dose per gram of tissue (%ID/g), which was decay-corrected to the start time of counting. The percentage reflected the activity associated with tissues per organ weight per actual injected dose.

CC(C)[C@H](NC(=O)CNC(=O)[C@H](Cc1c[nH]c2ccccc12)NC(=O)[C@@H]1CCCN1C(=O)[C@H](CC(=O)O)NC(=O)[C@H](CCC(N)=O)NC(=O)[C@H](CCC(=O)O)NC(=O)[C@H](Cc1ccc(O)cc1)NC(=O)CN1CCN(CC(=O)O)CCN(CC(=O)O)CCN(CC(=O)O)CC1)C(=O)N[C@@H](CCCCN)C(=O)N[C@@H](Cc1c[nH]c2ccccc12)C(=O)N[C@@H](Cc1c[nH]c2ccccc12)C(=O)N[C@@H](Cc1ccc(O)cc1)C(=O)O [[^68Ga]Ga-DOTA-M2pep, metal not drawn] ({DOTA}-YEQDPWGVKWWY-OH)
remaining at 2 h, 18.5 MBq/mL (in vitro): > 85% | tissue to tissue ratio at 0.5 h (in vivo [1]): 3.19 ± 0.22 | tissue to tissue ratio at 2 h (in vivo [1]): 3.12 ± 0.83 | tissue uptake at 0.5 h (in vivo [1]): 2.72 ± 0.07 %ID/g | tissue uptake at 1 h (in vivo [1]): 2.93 ± 0.2 %ID/g | tissue uptake at 2 h (in vivo [1]): 2.47 ± 0.13 %ID/g | tumor/muscle ratio (PET) [2]: 3.35 ± 0.27 | tissue uptake at 5 min (in vivo [3]; blood uptake): 10.5 ± 2.2 %ID/g | tissue uptake at 1 h (in vivo [3]; blood uptake): 1.84 ± 0.02 %ID/g | tissue uptake at 5 min (in vivo [3]; kidney uptake (peak)): 12.7 ± 3.71 %ID/g | tissue uptake at 1 h (in vivo [3]; liver uptake): 0.96 ± 0.02 %ID/g | tissue uptake at 1 h (in vivo [3]; tumor uptake): 3.35 ± 0.34 %ID/g | tissue uptake at 2 h (in vivo [3]; tumor uptake): 3.12 ± 0.27 %ID/g
